Assay results taken from patent US11155596B2, “Polypeptide” (AFFIBODY AB, priority 2016, dated 2021).
Each block holds one substance with its values, some of them ahead of it.

Columns and labels:
[1] = biological target: human PD-L1 Fc Chimera (R&D Systems, cat. no. 156-B7-100) (human) (UniProt Q9NZQ7); assay: ELISA screen, 40 pM hPD-L1
[2] = biological target: PD-L1 on PD-L1 expressing cells (IFNg-stimulated THP-1 cells; MDA-MB-231 cells) (Homo sapiens (Human)) (UniProt Q9NZQ7); assay: FACS, MDA-MB-231 cells, 0.625 µg/ml; negative control (buffer) 69
[3] = biological target: PD-L1 on PD-L1 expressing cells (IFNg-stimulated THP-1 cells; MDA-MB-231 cells) (Homo sapiens (Human)) (UniProt Q9NZQ7); assay: FACS, MDA-MB-231 cells, 1 µg/ml, positive control

Chain of human PD-L1 Fc Chimera (R&D Systems, cat. no. 156-B7-100) (human) (Q9NZQ7 19-239, change not shown): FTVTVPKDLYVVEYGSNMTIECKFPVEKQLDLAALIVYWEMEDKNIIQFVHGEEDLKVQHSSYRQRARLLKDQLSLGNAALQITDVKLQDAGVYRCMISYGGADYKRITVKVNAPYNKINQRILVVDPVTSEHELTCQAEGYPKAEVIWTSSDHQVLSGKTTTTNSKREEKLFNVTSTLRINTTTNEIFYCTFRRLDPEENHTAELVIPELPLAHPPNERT

ELISA response (average) [1]: 0.051 AU
Substance: fusion protein ABD with no Z-fusion partner (periplasmic negative control) (from UniProt P19909)

MFI [2]: 64
Substance: ipilimumab (Yervoy, Bristol-Myers Squibb, bought) (antibody)

MFI [3]: 610
Substance: mouse anti-PD-L1 antibody (R&D Systems, cat. no. MAB1561) (tool reagent)
